The values below come from patent publication US20220403048A1, “BINDING MOLECULES TO ARGINASE II [ARG2]” (Cancer Research Technology Limited, priority 2019, published 2022).

In general, IC50 refers to the concentration that gives 50% inhibition.

The target in assay [1] is recombinant human trimeric ARG2 enzyme (construct not given) (human) (UniProt P78540). In words: cell-based or functional assay.
Assay [2] deals with biotinylated recombinant human trimeric ARG2 enzyme (Avi-huARG2-His10) (human) (UniProt P78540). The experiment in a line: HTRF epitope competition, scFv titrated, competitor C0020187 IgG, on biotinylated human trimeric ARG2.
For assay [3], the target named is recombinant human trimeric ARG2 enzyme (construct not given) (human) (UniProt P78540). In words: dynamic light scattering, 8 µM each.
Target sequence in this assay (P78540 23-354, form in doubt): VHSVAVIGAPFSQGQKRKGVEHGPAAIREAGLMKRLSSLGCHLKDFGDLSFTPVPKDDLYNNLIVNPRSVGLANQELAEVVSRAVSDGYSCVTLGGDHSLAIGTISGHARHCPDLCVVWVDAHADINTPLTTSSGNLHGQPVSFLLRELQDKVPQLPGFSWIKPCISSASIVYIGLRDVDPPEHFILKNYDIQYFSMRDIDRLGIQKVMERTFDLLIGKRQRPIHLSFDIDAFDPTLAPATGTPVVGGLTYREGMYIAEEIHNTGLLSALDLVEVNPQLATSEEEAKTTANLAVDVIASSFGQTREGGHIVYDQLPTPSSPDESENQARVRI
Assay [4] shares this target. In words: size-exclusion chromatography, 8 µM each. In general terms: SEC sorts molecules by how far they enter the pores of the column.
Target sequence in this assay (P78540 23-354, form in doubt): as above

Where a chain is given by its changes, count along the chain named. Some results are limits rather than exact numbers.

biotinylated recombinant human trimeric ARG2 enzyme (Avi-huARG2-His10) (human), sequence (P78540 other isoform, or with tags, fused parts or gaps limits assumed, form in doubt): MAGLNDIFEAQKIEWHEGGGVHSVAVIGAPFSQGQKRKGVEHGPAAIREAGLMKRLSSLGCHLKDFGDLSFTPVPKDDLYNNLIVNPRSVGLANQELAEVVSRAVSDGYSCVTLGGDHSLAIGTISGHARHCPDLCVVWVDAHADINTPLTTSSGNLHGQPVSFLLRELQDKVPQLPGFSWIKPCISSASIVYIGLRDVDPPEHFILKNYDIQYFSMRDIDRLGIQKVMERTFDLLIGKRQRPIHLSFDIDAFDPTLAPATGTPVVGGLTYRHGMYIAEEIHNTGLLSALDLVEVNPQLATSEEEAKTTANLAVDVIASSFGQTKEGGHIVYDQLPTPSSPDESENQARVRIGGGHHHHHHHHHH

B1: C0021142 scFv (scFv, part only; not given: linker, domain order, tag, V domains shown, not shown: another chain or arm of the molecule; small tags and cut ends)
VH: EVQLLESGGGLVQPGGSLRLSCAASGFTFSSYAMSWVRQAPGKGLEWVSAHTHSPGSTYYADSVKGRFTISRDNSKNTLYLQMNSLRAEDTAVYYCARLRADLGLYMDLWGRGTLVTVSS
VL: QSVLTQPPSVSAAPGQKVTISCSGSSSNIGNHYVSWYQQLPGTAPKLLIYDNSERPSGVPDRFSGSKSGTSATLGITGLQTGDEADYYCGTWDSSLSALVFGGGTKLTVL
With B1, the Trimeric human ARG2 EIA IC50 in assay [1] stood at 97.6 nM. Further, in assay [2], the IC50 was found to be 57.8 nM.

B2: C0021139 Fab (Fab, V domains shown)
VH: B1 VH with S30Q, S31Y, Y32D, A33Y, M34Q, S35V, H51I, T52S, H53G, P55G
VL: B1 VL with P56T, V59I, S94E, S95L, L96T, A98N
For B2, the increase in average hydrodynamic radius (Rh) against ARG2-C0020187 Fab complexes in assay [3] came to 1.5 nm. For the same molecule, the SEC peak of the 1:1 molar ARG2:Fab mixture in assay [4] came out at 275 kDa.

B3: C0020065 recombinant human IgG1 (antibody, V domains shown)
VH: GVNLRESGGGVVQPGRSLRLSCAASGFTFSSYAMHWVRQAPGKGLEWVAVISYDGSNKYYVDSVKGRFTISRDNSKNTLYLQMNSLRAEDTAVYYCARDSSQLWFDYWGRGTLVTVSS
VL: QSVVTQPPSVSGAPGQRVTISCTGSSSNIGTGYDVHWYQQLPGTAPKLLIYGNSNRPSGVPDRFSGSKSGTSASLAITGLQAEDEADYYCQSYDSSLSGSVVFGGGTQLTVL
Take B3: in assay [1], the EC50, In Presence of rhARG2 (T cell proliferation) was over 2 µM and the Maximum % Proliferation, In Presence of rhARG2 was determined as 49%.
